Test results taken from US20150093336A1 (VIB VZW, published 2015).

B1: NbhMMRm5.38 (VHH)
VHH: QVQLQESGGGLVQAGGSLRLSCAASGFTDDDYDIGWFRQAPGKEREGVSCISSSDGSTYYADSVKGRFTISSDNAKNTVYLQMNSLKPEDTAVYYCAADFFRWDSGSYYVRGCRHATYDYWGQGTQVTVSS
notes: Produced from pMECS with C-terminal HA and 6xHis tag; also called NbhmMMRm5.38; Nb5.38
B2: NbhMMRm15.43 (VHH)
VHH: QVQLQESGGTLVQPGGSLRLSCAASGSTFSINNMGWYRQAPGKQRELVAGITGGNTHYADSVKGRFTISRDNAKNTMYLQMNGLKPEDTAVYYCNANWGAYWGQGTQVTVSS
notes: Produced from pMECS with C-terminal HA and 6xHis tag
B3: NbhmMMRm15.49 (VHH)
VHH: QVQLQESGGGLVQAGGSLRLSCAASGSTFSINNMGWYRQAPGKQRELVAGITGGNTHYADSVKGRFTISRDNAKNTMYLQMNSLKPEDTAVYYCNANWGAYWGQGTQVTVSS
notes: as for B2
B4: NbhmMMRm21.22 (VHH)
VHH: QVQLQESGGGLVQAGGSLRLSCAASGRTFSSAAMGWFRQAPGKEREPVALINLDDGETYYADIAKGRFTLSKDNAKNSVYLQMNSLKPEDTAVYYCAVRGRFDDNYEYWGQGTQVTVSS
notes: Produced from pMECS with C-terminal HA and 6xHis tag; also called NbhMMRm21.22
B5: NbhmMMRm22.84 (VHH)
VHH: QVQLQESGGGLVQPGGSLRLSCAASGRTFSNYVNYAMGWFRQFPGKEREFVASISWSSVTTYYADSVKGRFTISRDNAKNTVYLQMNSLKPEDTAVYYCAAHLAQYSDYAYRDPHQFGAWGQGTQVTVSS
notes: as for B2
B6: NbhmMMRm24.31 (VHH)
VHH: QVQLQESGGGLVQPGGSLRLSCTATGFTLKNHHIGWLRQAPGKEREGVASINSSGGSTNYADSVQGRFTISRDNAKNTVFLQMNSLKSEDTAVYYCARLRRYYGLNLDPGSYDYWGQGTQVTVSS
notes: as for B2
B7: NbhmMMRm26.70 (VHH)
VHH: QVQLQESGGGLVQPGGSLRLSCTASGFPFSSAPMSWVRQAPGKELEWVSYIGYTGTITDYANSVKGRFTISRDNAKNRLYLQMNSLKPEDTAVYFCAQGYARLIADSDLVRGQGTQVTVSS
notes: as for B2
B8: NbhMMRm3.1 (VHH)
VHH: QVQLQESGGGLVQPGGSLRLSCAASGFTLDYYAIGWFRQAPGKEREGISCISYKGGSTTYADSVKGRFTISKDNAKNTAYLQMNNLKPEDTGIYYCAAGFVCYNYDYWGPGTQVTVSS
notes: Produced from pMECS with C-terminal HA and 6xHis tag; also called NbhmMMRm3.1
B9: NbhmMMRm3.49 (VHH)
VHH: QVQLQESGGGLVQPGGSLRLSCAASGFSLDYYAIGWFRQAPGKEREGISCISYKGGSTTYADSVKGRFTISKDNAKNTAYLQMNSLKPEDTGIYSCAAGFVCYNYDYWGQGTQVTVSS
notes: Produced from pMECS with C-terminal HA and 6xHis tag; also called NbhMMRm3.49
B10: NbhmMMRm6.71 (VHH)
VHH: QVQLQESGGGLVQAGGSLRLSCAASGGTFDDSVIGWFRQAPGKEREGVSCISSNDGTTHYASPVKGRFTISSDNAKNTVYLQMNSLKPEDTAVYYCAAETPSIGSPCTSASYDYWGQGTQVTVSS
notes: as for B2
B11: NbhmMMRm17.72 (VHH)
VHH: QVQLQESGGGLVQPGGSLRLSCAASGSIVSINAMGWYRQAPGKQRELVALVTGSGRTNLADSVKGRFTISRDNAKNTVYLQMNSLKPEDTAVYYCNVLVIGPLEGYDYWGQGTQVTVSS
notes: as for B2
B12: NbhMMRm23.30 (VHH)
VHH: QVQLQESGGGLVQAGDSLSISCAASGDTFNHYSWGWFRQAPGKAREFVAAISWNGGSKYADSVKGRFAISRDIAKNTVSLQMNSLEPEDTAVYYCAADRRPYNDWWDDWSWWVYWGQGTQVTVSS
notes: as for B2

How the values were obtained:
[1] = molecular target: T1, Recombinant mouse MMR (R&D systems) (mouse, UniProt Q61830 20-1388); test: SPR, BIAcore T100; mouse MMR on CM5 chip, sdAb as analyte
T1 construct: Antigen of the PE-ELISA and the SPR; also called mMMR; recombinant mMMR
T1 sequence: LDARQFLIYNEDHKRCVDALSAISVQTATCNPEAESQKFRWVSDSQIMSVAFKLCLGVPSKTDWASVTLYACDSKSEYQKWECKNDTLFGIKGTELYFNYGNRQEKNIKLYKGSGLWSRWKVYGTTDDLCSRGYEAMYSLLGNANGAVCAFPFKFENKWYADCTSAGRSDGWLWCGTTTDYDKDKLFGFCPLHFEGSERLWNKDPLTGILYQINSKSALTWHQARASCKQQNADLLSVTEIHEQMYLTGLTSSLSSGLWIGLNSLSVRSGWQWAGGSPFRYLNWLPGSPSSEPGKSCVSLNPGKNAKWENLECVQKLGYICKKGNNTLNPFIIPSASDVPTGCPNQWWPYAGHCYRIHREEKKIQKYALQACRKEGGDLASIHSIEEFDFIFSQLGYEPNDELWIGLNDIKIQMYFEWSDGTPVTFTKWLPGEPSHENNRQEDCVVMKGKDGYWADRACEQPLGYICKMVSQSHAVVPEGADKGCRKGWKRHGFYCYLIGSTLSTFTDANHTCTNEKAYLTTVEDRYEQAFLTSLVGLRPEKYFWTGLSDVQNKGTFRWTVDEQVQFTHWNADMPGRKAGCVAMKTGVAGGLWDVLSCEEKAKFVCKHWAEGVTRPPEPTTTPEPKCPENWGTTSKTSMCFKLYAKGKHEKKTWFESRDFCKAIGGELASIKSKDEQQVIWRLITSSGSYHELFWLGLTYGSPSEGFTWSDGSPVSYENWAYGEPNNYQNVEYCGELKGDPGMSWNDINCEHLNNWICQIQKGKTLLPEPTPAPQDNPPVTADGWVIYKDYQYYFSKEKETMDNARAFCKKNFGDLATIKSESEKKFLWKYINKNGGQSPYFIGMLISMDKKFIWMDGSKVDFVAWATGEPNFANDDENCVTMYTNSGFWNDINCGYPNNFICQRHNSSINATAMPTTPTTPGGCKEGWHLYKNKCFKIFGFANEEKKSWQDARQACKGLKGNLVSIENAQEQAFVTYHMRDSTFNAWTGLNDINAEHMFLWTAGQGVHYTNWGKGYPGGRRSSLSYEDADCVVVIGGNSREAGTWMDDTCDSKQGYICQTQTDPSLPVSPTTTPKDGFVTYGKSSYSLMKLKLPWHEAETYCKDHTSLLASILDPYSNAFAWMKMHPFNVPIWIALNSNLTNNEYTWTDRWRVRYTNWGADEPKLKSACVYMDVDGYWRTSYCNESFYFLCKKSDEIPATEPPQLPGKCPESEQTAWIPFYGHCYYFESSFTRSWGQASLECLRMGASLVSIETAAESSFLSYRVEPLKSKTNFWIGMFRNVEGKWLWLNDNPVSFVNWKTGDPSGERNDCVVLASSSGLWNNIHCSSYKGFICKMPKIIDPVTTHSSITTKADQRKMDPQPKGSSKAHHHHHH
Experimental: (§1) Affinity analysis was performed using a BIAcore™ T100 (GE Healthcare) with HEPES-buffered saline running buffer (10 mM HEPES with 0.15 M NaCl, 3.4 mM EDTA and 0.005% surfactant P20 at pH 7.4). MRR was immobilized on a CM5 chip in acetate buffer 50 mM (pH 5.0), resulting in 2100 RU MMR coated on the chip. A second channel on the same chip was activated/deactivated in a similar way and served as a negative control. The MMR sdAbs were used as analytes in eleven different concentrations, ranging from 1 to 2000 nM, at a flow rate of […]. Glycine-HCl 50 mM (pH 2.0) was used for elution. The kinetic and equilibrium parameters (kd, ka and KD) values were calculated from the combined sensogram of all concentrations using BIAcore™ T100 evaluation software 2.02 (GE Healthcare).
(§2) The binding characteristics and affinity of selected Nbs towards the recombinant hMMR and recombinant mMMR antigen was examined in further detail using surface plasmon resonance. A combined sensogram was recorded for each Nb (example for NbhmMMRm3.49 in FIG. 5) and the kinetic and equilibrium parameters (kd, ka and KD) values were calculated (Table 4 and Table 5). Most but not all results on binding to mouse or human rMMR obtained via this SPR analysis are in agreement with the results obtained by PE-ELISA.

[2] = molecular target: T2, Recombinant human MMR (R&D systems) (human, UniProt P22897 19-1383); test: SPR, BIAcore T100; human MMR on CM5 chip, sdAb as analyte
T2 construct: Antigen of the PE-ELISA and the SPR; also called hMMR; recombinant hMMR
T2 sequence: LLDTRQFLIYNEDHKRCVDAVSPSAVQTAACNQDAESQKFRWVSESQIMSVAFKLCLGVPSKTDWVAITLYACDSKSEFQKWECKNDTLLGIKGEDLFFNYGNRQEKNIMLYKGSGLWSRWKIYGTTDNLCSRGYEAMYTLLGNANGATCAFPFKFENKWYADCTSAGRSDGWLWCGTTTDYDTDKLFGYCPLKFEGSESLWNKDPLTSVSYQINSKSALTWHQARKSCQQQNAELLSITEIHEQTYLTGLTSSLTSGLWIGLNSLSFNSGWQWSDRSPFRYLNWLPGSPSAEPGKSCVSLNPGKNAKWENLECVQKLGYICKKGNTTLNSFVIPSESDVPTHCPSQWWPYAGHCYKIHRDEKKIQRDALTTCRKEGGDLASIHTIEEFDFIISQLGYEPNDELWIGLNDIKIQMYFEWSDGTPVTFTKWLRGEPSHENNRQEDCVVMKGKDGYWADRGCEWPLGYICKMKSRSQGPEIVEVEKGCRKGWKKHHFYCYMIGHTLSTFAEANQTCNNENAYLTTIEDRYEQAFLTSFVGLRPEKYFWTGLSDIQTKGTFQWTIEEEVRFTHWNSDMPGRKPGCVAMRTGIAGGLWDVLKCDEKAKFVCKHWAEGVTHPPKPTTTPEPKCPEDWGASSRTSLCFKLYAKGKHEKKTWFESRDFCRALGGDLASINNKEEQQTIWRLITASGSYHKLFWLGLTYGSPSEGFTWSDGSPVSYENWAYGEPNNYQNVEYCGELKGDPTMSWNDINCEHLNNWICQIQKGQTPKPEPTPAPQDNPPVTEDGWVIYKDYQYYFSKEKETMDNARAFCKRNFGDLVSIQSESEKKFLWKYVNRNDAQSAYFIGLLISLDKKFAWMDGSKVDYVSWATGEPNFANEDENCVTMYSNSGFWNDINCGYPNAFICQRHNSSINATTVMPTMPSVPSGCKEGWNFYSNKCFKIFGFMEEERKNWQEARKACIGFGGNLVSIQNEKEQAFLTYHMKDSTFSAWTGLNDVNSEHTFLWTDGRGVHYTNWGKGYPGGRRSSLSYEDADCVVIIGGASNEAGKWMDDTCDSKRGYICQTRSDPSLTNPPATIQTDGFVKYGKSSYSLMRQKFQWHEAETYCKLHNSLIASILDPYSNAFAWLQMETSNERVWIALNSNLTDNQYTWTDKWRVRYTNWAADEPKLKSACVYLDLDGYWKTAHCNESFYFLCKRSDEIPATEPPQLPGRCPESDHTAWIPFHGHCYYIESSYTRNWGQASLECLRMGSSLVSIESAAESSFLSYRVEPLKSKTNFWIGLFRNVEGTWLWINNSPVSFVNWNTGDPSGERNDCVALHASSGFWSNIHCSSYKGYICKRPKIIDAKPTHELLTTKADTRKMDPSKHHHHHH
Experimental: as §1, §2

Binder	Kd [1] [nM]	koff [1] [s⁻¹]	kon [1] [M⁻¹ s⁻¹]	Kd [2] [nM]	koff [2] [s⁻¹]	kon [2] [M⁻¹ s⁻¹]	binding result [1]
B1	25	0.0033	130000	3.3	0.00066	200000	–
B2	44	0.0013	29000	270	0.0059	22000	–
B3	44	0.0013	29000	290	0.0061	21000	–
B4	–	–	–	3.6	0.0012	340000	–
B5	130	0.004	30000	38	0.0019	49000	–
B6	74	0.0021	28000	2.7	0.00069	260000	–
B7	1.9	0.0013	690000	13	0.0073	580000	–
B8	19	0.004	210000	3.4	0.00074	220000	–
B9	12	0.0036	290000	1.8	0.0008	440000	–
B10	–	–	–	5.6	0.0011	190000	–
B11	–	–	–	19	0.0012	62000	–
B12	–	–	–	–	–	–	no binding (tested: analyte 1 to 2000 nM)
